Data on 4 substances can be found in PMC7368380 (Journal of the American Chemical Society, 2018).

Series [1] has as its target fluorescein-labeled, wild-type FusA leader peptide (Thermobifida fusca). Description: fluorescence polarisation.
A further series concerns the target T1, carboxypeptidase Y (Saccharomyces cerevisiae, UniProt P00729).
T1 sequence (P00729 112-532): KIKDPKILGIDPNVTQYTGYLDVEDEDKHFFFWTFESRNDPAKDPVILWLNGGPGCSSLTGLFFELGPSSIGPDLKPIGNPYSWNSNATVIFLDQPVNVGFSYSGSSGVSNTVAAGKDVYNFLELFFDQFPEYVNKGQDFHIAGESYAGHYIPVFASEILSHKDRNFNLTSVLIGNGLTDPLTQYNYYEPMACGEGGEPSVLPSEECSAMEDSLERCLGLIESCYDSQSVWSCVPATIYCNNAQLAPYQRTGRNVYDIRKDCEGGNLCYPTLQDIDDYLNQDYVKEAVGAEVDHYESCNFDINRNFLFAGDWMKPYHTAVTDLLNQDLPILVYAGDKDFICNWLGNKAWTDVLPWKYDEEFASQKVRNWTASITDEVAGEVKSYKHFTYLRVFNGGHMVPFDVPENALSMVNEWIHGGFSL
In words: carboxypeptidase Y digestion. It counts as in vitro ADME. As to conditions: carboxypeptidase Y digestion for 18 h; analysis by MS (Fig. S11).

Series [2] in a line: MALDI-TOF MS-based hydrogen-deuterium exchange assay. The series is classed as physicochemical. As to conditions: H-D exchange, MALDI-TOF MS read-out (Fig. S10).
A further series is described as follows: solubility. It counts as physicochemical. As to conditions: qualitative statement; prevented NMR.

Turning to FusE G31V variant (natural protein), in series [1], the fold reduction of leader peptide binding against wild-type FusE is 2 fold. Substance FusE-D74A (natural protein) registered a fold reduction of affinity against wild-type FusE in series [1] of 8 fold. FusE-L78A (natural protein) had a fold reduction of affinity against wild-type FusE in series [1] of 10 fold. Regarding fusilassin, at carboxypeptidase Y, the “outcome of carboxypeptidase Y digestion” value is “vast majority of the fusilassin peptide remained intact”. In addition, the “time to full deuteration” value in series [2] was ~ 60 min. In addition, in “solubility”, the solubility characteristics result was “poor”.
